Laboratory results from PMC4174979.

Biological target: WRN_(235–526) (human)
Assay: SEC

Chain of WRN_(235–526) (domain or fragment) (Q14191 2-1432): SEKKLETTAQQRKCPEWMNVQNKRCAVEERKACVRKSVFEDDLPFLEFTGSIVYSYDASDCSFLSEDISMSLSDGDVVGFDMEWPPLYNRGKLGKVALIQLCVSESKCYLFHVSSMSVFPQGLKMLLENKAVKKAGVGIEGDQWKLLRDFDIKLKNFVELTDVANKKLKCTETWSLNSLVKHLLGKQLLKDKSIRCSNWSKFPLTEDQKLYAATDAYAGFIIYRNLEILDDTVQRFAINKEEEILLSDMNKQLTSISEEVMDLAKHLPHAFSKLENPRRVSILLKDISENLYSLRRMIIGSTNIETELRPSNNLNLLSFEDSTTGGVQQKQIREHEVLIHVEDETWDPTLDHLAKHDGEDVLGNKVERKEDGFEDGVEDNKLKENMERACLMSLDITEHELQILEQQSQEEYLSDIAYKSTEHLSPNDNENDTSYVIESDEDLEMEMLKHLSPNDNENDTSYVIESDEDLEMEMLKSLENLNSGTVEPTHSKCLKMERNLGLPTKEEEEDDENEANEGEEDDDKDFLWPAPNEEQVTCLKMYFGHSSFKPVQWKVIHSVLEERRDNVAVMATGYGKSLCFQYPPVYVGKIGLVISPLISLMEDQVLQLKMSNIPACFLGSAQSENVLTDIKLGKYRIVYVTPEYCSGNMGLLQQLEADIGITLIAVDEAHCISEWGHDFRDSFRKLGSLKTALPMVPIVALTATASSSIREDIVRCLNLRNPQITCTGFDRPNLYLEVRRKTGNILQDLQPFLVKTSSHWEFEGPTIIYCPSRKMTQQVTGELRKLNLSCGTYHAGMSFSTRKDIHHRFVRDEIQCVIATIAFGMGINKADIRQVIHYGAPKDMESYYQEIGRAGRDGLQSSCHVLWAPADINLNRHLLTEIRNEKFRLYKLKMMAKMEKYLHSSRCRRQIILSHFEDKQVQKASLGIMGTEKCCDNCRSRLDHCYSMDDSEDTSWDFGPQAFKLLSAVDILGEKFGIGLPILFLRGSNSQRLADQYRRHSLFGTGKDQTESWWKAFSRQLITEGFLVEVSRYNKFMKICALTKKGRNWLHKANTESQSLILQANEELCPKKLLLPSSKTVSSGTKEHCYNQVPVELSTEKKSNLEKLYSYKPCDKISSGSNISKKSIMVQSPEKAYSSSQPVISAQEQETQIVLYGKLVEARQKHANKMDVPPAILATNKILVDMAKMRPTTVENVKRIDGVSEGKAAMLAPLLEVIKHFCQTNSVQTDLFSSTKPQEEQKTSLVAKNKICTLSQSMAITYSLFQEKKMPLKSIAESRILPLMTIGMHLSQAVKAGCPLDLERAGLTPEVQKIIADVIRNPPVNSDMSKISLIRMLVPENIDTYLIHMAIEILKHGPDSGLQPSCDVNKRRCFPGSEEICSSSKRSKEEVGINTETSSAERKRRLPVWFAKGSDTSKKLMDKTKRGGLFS

WRN_(235–526) (domain or fragment)
stoichiometry N: 6
